“Also recorded” adds a separate entry of the source. Numbered stars: 1 amine (or outer) side, 2 acyl side, 3 side chain; on linkers, the order of the positions; unused ones are H or OH. Square brackets hold non-standard residues; d marks the D form. Peptide text beside a SMILES is read from it. Cys(Me) = S-methylcysteine, cys(Me), CSC[C@H](N[*:1])C(=O)[*:2]; Pen = CC(C)(S)[C@H](N)C(=O)O; hLeu = CC(C)CC[C@H](N)C(=O)O; hCys = N[C@@H](CCS)C(=O)O; Nle = CCCC[C@H](N)C(=O)O; Nva = CCC[C@H](N)C(=O)O; Aib = CC(C)(N)C(=O)O
How the values were obtained:
HIF-2α PAS-B = experiment: 2α (μM)
Description: Table printed on a drawing sheet, Figure 3 (part 1 of 3) A
Head of the field: 2α (μM)
The patent's description of the figure: FIG. 3

HIF-2α PAS-B (240-350) = biological target: T1, HIF-2α PAS-B (240-350) (Homo sapiens, UniProt Q99814); experiment: MST binding to recombinantly expressed HIF-2α PAS-B domain; conditions: MST, recombinant HIF-2α PAS-B domain; read-out: Kd / binding affinity for 2α PAS-B
T1 construct: HIF-2α PAS-B (240-350); His tag; made in house; host or cells: E. coli BL21(DE3)-Rosetta, pET28a
Method: The three lead peptides were next chemically synthesised, using Fmoc-solid phase peptide synthesis methodology, followed by in-solution cyclisation under high dilution conditions.
Genes encoding for human HIF-1α PAS-B (238-349) and HIF-2α PAS-B (240-350) were each cloned into pET28a vectors at the BamHI and SacI restriction sites. The recombinant plasmids were next transformed into BL21(DE3)-Rosetta chemically competent cells. Cells were grown in LB media at 37° C. to an OD600 of 0.7, after which expression was induced by addition of 0.5 mM IPTG. Following overnight expression at 16° C., cells were pelleted and resuspended in buffer containing 50 mM Tris, 150 mM NaCl, 5% glycerol, 1 mM TCEP, protease inhibitors (Roche) and 20 mM imidazole, pH 8.0. Cells were lysed by sonication, and the supernatant applied to a 1 mL Histrap FF affinity column. The His-tagged protein of interest was eluted with buffer containing 50 mM Tris, 150 mM NaCl, 5% glycerol, 1 mM TCEP and 250 mM imidazole. The protein was then loaded onto a HiLoad 16/600 superdex 75 pg size exclusion column (GE healthcare) equilibrated with assay buffer containing 50 mM Tris, 150 mM NaCl, 5% glycerol and 1 mM TCEP, pH 8.0. Fractions containing the desired protein were flash-frozen and stored at −80° C. prior to use. […]

HIF-1α PAS-B (238-349) = biological target: T2, HIF-1α PAS-B (238-349) (Homo sapiens, UniProt Q16665); experiment: MST binding to recombinantly expressed HIF-1α PAS-B domain; conditions: for affinity for the PAS-B domain of HIF-1α compared with cyclo-CLLFVY: compared with previously reported HIF-1 dimerization inhibitor
T2 construct: human HIF-1α PAS-B (238-349); His tag; made in house; host or cells: E. coli BL21(DE3)-Rosetta, pET28a
Method: Genes encoding for human HIF-1α PAS-B (238-349) and HIF-2α PAS-B (240-350) were each cloned into pET28a vectors at the BamHI and SacI restriction sites. The recombinant plasmids were next transformed into BL21(DE3)-Rosetta chemically competent cells. Cells were grown in LB media at 37° C. to an OD600 of 0.7, after which expression was induced by addition of 0.5 mM IPTG. Following overnight expression at 16° C., cells were pelleted and resuspended in buffer containing 50 mM Tris, 150 mM NaCl, 5% glycerol, 1 mM TCEP, protease inhibitors (Roche) and 20 mM imidazole, pH 8.0. Cells were lysed by sonication, and the supernatant applied to a 1 mL Histrap FF affinity column. The His-tagged protein of interest was eluted with buffer containing 50 mM Tris, 150 mM NaCl, 5% glycerol, 1 mM TCEP and 250 mM imidazole. The protein was then loaded onto a HiLoad 16/600 superdex 75 pg size exclusion column (GE healthcare) equilibrated with assay buffer containing 50 mM Tris, 150 mM NaCl, 5% glycerol and 1 mM TCEP, pH 8.0. Fractions containing the desired protein were flash-frozen and stored at −80° C. prior to use.
(§1) HIF-α proteins were labelled with Monolith NT-647 labelling dye (Nanotemper Technologies GmbH) according to the manufacturer's instructions. MST experiments were performed on a Monolith NT.115 system (Nanotemper Technologies GmbH), in assay buffer containing 50 nM labelled protein, 10% DMSO and 0.05% TWEEN-20. MST measurements were performed using 50% LED and 50% MST power.

[1] = biological target: T3, human HIF-1α PAS-B (238-349), recombinant, His-tagged (human, UniProt Q16665 238-349, labelled with Monolith NT-647 dye for MST); experiment: MST, HIF-1α PAS-B; bar chart of Kd (µM) for residues at position 1 of CRLIIF
T3 construct: range 238-349; Expressed in E. coli BL21(DE3)-Rosetta from pET28a; also called HIF-1α PAS-B domain; PAS-B domain of HIF-1α; not shown: His tag from pET28a vector (BamHI/SacI cloning)

[2] = biological target: T3, human HIF-1α PAS-B (238-349), …; experiment: MST, HIF-1α PAS-B; bar chart of Kd (µM) for residues at position 5 of CRLIIF
[3] = biological target: T4, human HIF-2α PAS-B (240-350), recombinant, His-tagged (human, UniProt Q99814 240-350, labelled with Monolith NT-647 dye for MST); experiment: MST, HIF-2α PAS-B (column 2α (µM))
T4 construct: range 240-350; Expressed in E. coli BL21(DE3)-Rosetta from pET28a; also called PAS-B domain of HIF-2α; not shown: His tag from pET28a vector (BamHI/SacI cloning)

[4] = biological target: T3, human HIF-1α PAS-B (238-349), …; experiment: MST, NT-647-labelled recombinant 1α PAS-B
Method: as §1

[5] = biological target: T3, human HIF-1α PAS-B (238-349), …; experiment: MST, HIF-1α PAS-B (column 1α (µM))

T2 sequence (Q16665 238-349): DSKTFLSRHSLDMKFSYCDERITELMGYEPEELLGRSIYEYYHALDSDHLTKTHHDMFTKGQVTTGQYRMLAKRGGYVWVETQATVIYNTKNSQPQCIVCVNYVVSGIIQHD
T3 sequence (Q16665 238-349): as above
T4 sequence (Q99814 240-350): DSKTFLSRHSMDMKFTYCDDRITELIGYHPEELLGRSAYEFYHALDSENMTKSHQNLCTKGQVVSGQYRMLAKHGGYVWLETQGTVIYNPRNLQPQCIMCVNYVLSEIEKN
T1 sequence (Q99814 240-350): as above

CC[C@H](C)[C@@H]1NC(=O)[C@H](CC(C)C)NC(=O)[C@H](CCCNC(=N)N)NC(=O)[C@H](CS)NC(=O)[C@H](Cc2ccccc2)NC(=O)[C@H](C)NC1=O [compound 10, CRLIAF]
Kd (HIF-2α PAS-B): 269 ± 7 µM

CC[C@H](C)[C@@H]1NC(=O)[C@H](CC(C)C)NC(=O)[C@H](CC(C)C)NC(=O)[C@H](CCCNC(=N)N)NC(=O)[C@H](CS)NC(=O)[C@H](Cc2ccccc2)NC1=O [Cyclic peptide #2, cyclo-cys arg leu leu ile phe] (cyclo(CRLLIF))
Kd (HIF-2α PAS-B (240-350)): 10 to 14 µM
Kd (HIF-1α PAS-B (238-349); MST, recombinant HIF-1α PAS-B domain, read-out: Kd / binding affinity for 1α PAS-B): 10 to 14 µM
affinity for the PAS-B domain of HIF-1α compared with cyclo-CLLFVY (HIF-1α PAS-B (238-349)): improved affinities

CC[C@H](C)[C@@H]1NC(=O)[C@H](CC(C)C)NC(=O)[C@H](CCCNC(=N)N)NC(=O)[C@H](C)NC(=O)[C@H](Cc2ccccc2)NC(=O)[C@H]([C@@H](C)CC)NC1=O [Cyclic peptide #9, cyclo-ala agr leu ile ile phe] (cyclo(ARLIIF))
Kd / binding affinity for 1α PAS-B (HIF-1α PAS-B (238-349); MST, recombinant HIF-1α PAS-B domain): could not be determined

CC[C@H](C)[C@@H]1NC(=O)[C@H](C)NC(=O)[C@H](CCCNC(=N)N)NC(=O)[C@H](CS)NC(=O)[C@H](Cc2ccccc2)NC(=O)[C@H]([C@@H](C)CC)NC1=O [compound 8, CRAIIF] (cyclo(CRAIIF))
Kd (HIF-2α PAS-B): 52 ± 7 µM

CC[C@H](C)[C@@H]1NC(=O)[C@H](CC(C)C)NC(=O)[C@H](CCCCN)NC(=O)[C@H](CS)NC(=O)[C@H](Cc2ccccc2)NC(=O)[C@H]([C@@H](C)CC)NC1=O [Cyclic peptide #1, cyclo-cys lys leu ile ile phe] (cyclo(CKLIIF))
selectivity between 1α and 2α PAS-B domains (in words) (HIF-1α PAS-B (238-349); MST, 1α vs 2α PAS-B): little difference in selectivity
affinity for the PAS-B domain of HIF-1α compared with cyclo-CLLFVY (HIF-1α PAS-B (238-349)): improved affinities

CC[C@H](C)[C@@H]1NC(=O)[C@H](CC(C)C)NC(=O)[C@H](CCCNC(=N)N)NC(=O)[C@H](CS)NC(=O)[C@H](Cc2ccccc2)NC(=O)C(C)(C)NC1=O [Cyclic peptide #38, cyclo-cys agr leu ile (Aib) phe (Aib)F] (cyclo([Aib]FCRLI))
affinity relative to parent peptide CRLIIF (in words) (HIF-1α PAS-B (238-349); MST, SAR substitutions, listed as Aib derivative): weaker Kd than the parent compound; also recorded: markedly improved affinity over both the alanine and aminobutyric acid

B1: C(Me) (peptide)
cyclic peptide: cyclo([Cys(Me)]RLIIF)
SMILES: CC[C@H](C)[C@@H]1NC(=O)[C@H](CC(C)C)NC(=O)[C@H](CCCNC(=N)N)NC(=O)[C@H](CSC)NC(=O)[C@H](Cc2ccccc2)NC(=O)[C@H]([C@@H](C)CC)NC1=O
notes: Bar 'C(Me)' in the chart of C1 substitutions of CRLIIF; Comparative peptide; also called Cyclo-C(Me)RLIIF; cyclo-(methyl)cys arg leu ile ile phe
Kd [1]: 62 µM

B2: cyclo-cys arg leu ile (n-leu) phe (peptide)
peptide: cyclo(CRLI[Nle]F)
SMILES: CCCC[C@@H]1NC(=O)[C@H]([C@@H](C)CC)NC(=O)[C@H](CC(C)C)NC(=O)[C@H](CCCNC(=N)N)NC(=O)[C@H](CS)NC(=O)[C@H](Cc2ccccc2)NC1=O
notes: also called Cyclo-CRLI(Nle)F; cyclic peptide #34
binding result [2]: binds

B3: cyclo-Pen arg leu ile ile phe (peptide)
peptide: cyclo([Pen]RLIIF)
SMILES: CC[C@H](C)[C@@H]1NC(=O)[C@H](CC(C)C)NC(=O)[C@H](CCCNC(=N)N)NC(=O)[C@H](C(C)(C)S)NC(=O)[C@H](Cc2ccccc2)NC(=O)[C@H]([C@@H](C)CC)NC1=O
notes: also called Cyclo-PenRLIIF; cyclic peptide #12d
Kd [1]: 9 µM

B4: cyclo-cys arg leu ile (Nva) phe (peptide)
peptide: cyclo(CRLI[Nva]F)
SMILES: CCC[C@@H]1NC(=O)[C@H]([C@@H](C)CC)NC(=O)[C@H](CC(C)C)NC(=O)[C@H](CCCNC(=N)N)NC(=O)[C@H](CS)NC(=O)[C@H](Cc2ccccc2)NC1=O
notes: also called Cyclo-CRLI(Nva)F; cyclic peptide #35
binding result [2]: binds

B5: cyclo-cys arg leu ile h-leu phe (peptide)
peptide: cyclo(CRLI[hLeu]F)
SMILES: CC[C@H](C)[C@@H]1NC(=O)[C@H](CC(C)C)NC(=O)[C@H](CCCNC(=N)N)NC(=O)[C@H](CS)NC(=O)[C@H](Cc2ccccc2)NC(=O)[C@H](CCC(C)C)NC1=O
notes: also called Cyclo-CRLI(hL)F; cyclic peptide #33
binding result [2]: binds

CRLIIF (head-to-tail cyclic (cyclo-), also called CRLIIF; cyclic peptide #4) [cyclo-cys arg leu ile ile phe]
Kd [3]: 11 µM
Kd [1]: 3.9 µM
Kd [4]: 3.8 µM
fold greater affinity than CKLLIF [4]: ~3 fold

CALIIF (head-to-tail cyclic (cyclo-), also called CALIIF; cyclic peptide #10) [cyclo-cys ala leu ile ile phe]
Kd [3]: 12 µM
Kd [5]: 30 µM

B6: cyclo-cys arg leu ile leu phe (peptide)
peptide: CRLILF
modifications: head-to-tail cyclic (cyclo-)
notes: also called Cyclo-CRLILF; cyclic peptide #36
binding result [2]: binds

cyclo(CKLLIF) (not fully specified, also called CKLLIF; cyclic peptide #5) [cyclo-cys lys leu leu ile phe]
Kd [4]: 12 µM

CRAIIF (head-to-tail cyclic (cyclo-), also called CRAIIF; cyclic peptide #11) [cyclo-cys arg ala ile ile phe]
Kd [3]: 52 µM
Kd [5]: 53 µM

B7: T (peptide)
cyclic peptide: TRLIIF
modifications: head-to-tail cyclised
notes: Bar 'T' in the chart of C1 substitutions of CRLIIF; Comparative peptide; also called Cyclo-TRLIIF; cyclo-thr arg leu ile ile phe
Kd [1]: > 200 µM

CRLAIF (head-to-tail cyclic (cyclo-), also called CRLAIF; cyclic peptide #6) [cyclo-cys arg leu ala ile phe]
Kd [3]: 61 µM
Kd [5]: 13 µM

B8: cyclo-cys arg leu ile val phe (peptide)
peptide: CRLIVF
modifications: head-to-tail cyclic (cyclo-)
notes: also called Cyclo-CRLIVF; cyclic peptide #37
binding result [2]: binds

B9: M (peptide)
cyclic peptide: MRLIIF
modifications: head-to-tail cyclised
notes: Bar 'M' in the chart of C1 substitutions of CRLIIF; Comparative peptide; also called Cyclo-MRLIIF; cyclo-met arg leu ile ile phe
Kd [1]: 108 µM

CRLIIA (head-to-tail cyclic (cyclo-), also called CRLIIA; cyclic peptide #8) [cyclo-cys arg leu ile ile ala]
Kd [3]: 373 µM
Kd [5]: 91 µM

B10: S (peptide)
cyclic peptide: SRLIIF
modifications: head-to-tail cyclised
notes: Bar 'S' in the chart of C1 substitutions of CRLIIF; Comparative peptide; also called Cyclo-SRLIIF; cyclo-ser arg leu ile ile phe
Kd [1]: 169 µM

CRLIAF (head-to-tail cyclic (cyclo-), also called CRLIAF; cyclic peptide #7) [cyclo-cys arg leu ile ala phe]
Kd [3]: 269 µM
Kd [5]: 111 µM

ARLIIF (head-to-tail cyclic (cyclo-), also called ARLIIF; cyclic peptide #9) [cyclo-ala arg leu ile ile phe]
Kd [1]: > 200 µM

B11: cyclo-hcys arg leu ile ile phe (peptide)
peptide: cyclo([hCys]RLIIF)
SMILES: CC[C@H](C)[C@@H]1NC(=O)[C@H](CC(C)C)NC(=O)[C@H](CCCNC(=N)N)NC(=O)[C@H](CCS)NC(=O)[C@H](Cc2ccccc2)NC(=O)[C@H]([C@@H](C)CC)NC1=O
notes: also called Cyclo-hCRLIIF; cyclic peptide #13d
Kd [1]: 44 µM

— patent publication US20240270793A1, “COMPOSITIONS” (UNIVERSITY OF SOUTHAMPTON, priority 2020, published 2024)
